Measured values taken from publication PMC10873642.

Molecular target: α-synuclein, 140-residue isoform (αSyn-140) (human) (UniProt P37840)

decrease in aggregation half-time (t1/2) by ThT fluorescence of 90% (45 µM) αSyn-140 co-incubated with 10% (5 µM) αSyn-112 monomers, against 100% (50 µM) αSyn-140: 25%
Substance: α-synuclein splice isoform αSyn-112 (lacking exon 5) (from UniProt P37840-2 1-112) (natural protein)
